The text below walks through data of publication PMC4337892 (Molecular cell, 2014).

Data set [1] concerns the target T1, H. sapiens laforin residues 1-328, wild-type (human), O95278.
T1 chain: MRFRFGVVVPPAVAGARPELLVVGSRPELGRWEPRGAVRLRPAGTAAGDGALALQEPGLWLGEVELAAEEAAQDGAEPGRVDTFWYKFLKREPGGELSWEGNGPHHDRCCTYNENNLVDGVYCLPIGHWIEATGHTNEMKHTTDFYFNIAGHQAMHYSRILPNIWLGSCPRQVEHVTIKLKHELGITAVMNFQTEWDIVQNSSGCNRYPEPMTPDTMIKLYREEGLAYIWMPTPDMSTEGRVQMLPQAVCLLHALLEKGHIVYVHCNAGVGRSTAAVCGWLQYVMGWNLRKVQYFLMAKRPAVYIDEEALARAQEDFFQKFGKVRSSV
Briefly: AUC. Conditions: remark: other sources report otherwise.

Data set [2] concerns the molecule itself. Nature of the data set: SEC-SAXS.

Where a chain is given by its changes, count along the chain named. Names may count otherwise.

B1: H. sapiens laforin residues 1-328, wild-type, O95278 1-328 (enzyme)
chain: T1 chain
As for B1, the stoichiometry N (as a rule, a count of units in the complex or per binding partner) in data set [1] was determined as 2.

B2: H. sapiens laforin residues 1-328, C266S (enzyme, human, UniProt O95278 1-328, looked up)
chain: T1 chain with C266S
Take B2: in data set [2], the “stoichiometry N” value was 2.
